T1: human lysozyme (human, UniProt P61626 19-148)
T1 construct: Bought; passed through Superdex 75 before SPR
T1 sequence (looked up): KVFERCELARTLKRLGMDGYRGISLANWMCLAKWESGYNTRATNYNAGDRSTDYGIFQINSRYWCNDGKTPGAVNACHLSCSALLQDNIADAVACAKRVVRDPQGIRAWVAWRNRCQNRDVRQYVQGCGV

T2: ovalbumin (UniProt P01012 2-386)
T2 sequence (looked up): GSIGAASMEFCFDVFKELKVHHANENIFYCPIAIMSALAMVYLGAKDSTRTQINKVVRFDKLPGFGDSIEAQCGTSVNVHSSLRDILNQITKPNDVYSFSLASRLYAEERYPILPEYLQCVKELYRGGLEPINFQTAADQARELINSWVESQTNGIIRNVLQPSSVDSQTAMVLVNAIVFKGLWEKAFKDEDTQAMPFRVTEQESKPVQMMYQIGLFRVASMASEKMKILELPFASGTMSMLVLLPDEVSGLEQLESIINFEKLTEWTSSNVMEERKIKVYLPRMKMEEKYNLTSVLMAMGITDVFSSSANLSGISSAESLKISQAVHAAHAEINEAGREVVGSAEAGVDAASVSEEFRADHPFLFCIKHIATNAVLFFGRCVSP


What was measured:
human lysozyme = target: T1, human lysozyme; assay: phage ELISA, phage-displayed VL on immobilized human lysozyme
human serum albumin = target: T3, human serum albumin (human, UniProt P02768 25-609); assay: SPR (Biacore 3000), VL over immobilized human serum albumin
T3 construct: also called HSA
T3 sequence (P02768 25-609 limits assumed): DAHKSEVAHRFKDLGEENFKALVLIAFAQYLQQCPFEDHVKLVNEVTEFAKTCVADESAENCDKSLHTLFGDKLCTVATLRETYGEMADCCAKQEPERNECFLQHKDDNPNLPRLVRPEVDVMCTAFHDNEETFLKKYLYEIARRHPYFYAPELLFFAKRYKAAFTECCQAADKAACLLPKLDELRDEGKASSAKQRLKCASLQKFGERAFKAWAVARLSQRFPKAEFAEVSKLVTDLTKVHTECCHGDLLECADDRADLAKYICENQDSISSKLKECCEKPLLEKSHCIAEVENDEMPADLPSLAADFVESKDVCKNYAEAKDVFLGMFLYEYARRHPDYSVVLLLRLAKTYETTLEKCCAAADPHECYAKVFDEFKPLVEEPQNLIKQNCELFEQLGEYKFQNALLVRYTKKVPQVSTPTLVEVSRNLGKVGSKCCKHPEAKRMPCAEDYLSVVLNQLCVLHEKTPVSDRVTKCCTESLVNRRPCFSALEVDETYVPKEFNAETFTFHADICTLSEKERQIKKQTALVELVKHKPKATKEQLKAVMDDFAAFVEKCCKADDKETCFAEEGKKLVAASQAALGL
Description: (§1) The KD of the VL against human serum albumin was determined by surface plasmon resonance as described for other domains above. Briefly, the binding of the VL to immobilized human serum albumin was determined by SPR using the BIACORE 3000 (GE Healthcare). Approximately 1,600 RUs of human serum albumin, 1,900 RUs of bovine serum albumin and 2,200 RUs of ovalbumin were immobilized on a research grade CMS sensor chip. An ethanolamine blocked surface was prepared, as a reference, in exactly the same manner as the protein surfaces. Immobilizations were carried out at concentrations of 20 μg/mL in 10 mM acetate buffer pH 4.5 using the amine coupling kit supplied by the manufacturer. The VL was passed through a Superdex 75 column (GE Healthcare) to eliminate any possible aggregates prior to Biacore analysis. For the binding studies, analyses were carried out at 25° C. in 10 mM HEPES, pH 7.4 containing 150 mM NaCl, 3 mM EDTA and 0.005% surfactant P20. The flow rates used were 40 μL/min and sample volumes were 60 μL. For regeneration the surface was washed for 10 min with the running buffer. Data were analyzed with BIAevaluation 4.1 software.

ovalbumin = target: T2, ovalbumin; assay: SPR (Biacore 3000), VL over immobilized ovalbumin (about 2,200 RUs)
Description: as §1

bovine serum albumin = bovine serum albumin (bovine, UniProt P02769 25-607); assay: SPR (Biacore 3000), VL over immobilized bovine serum albumin (about 1,900 RUs)
Sequence of bovine serum albumin (P02769 25-607 limits assumed): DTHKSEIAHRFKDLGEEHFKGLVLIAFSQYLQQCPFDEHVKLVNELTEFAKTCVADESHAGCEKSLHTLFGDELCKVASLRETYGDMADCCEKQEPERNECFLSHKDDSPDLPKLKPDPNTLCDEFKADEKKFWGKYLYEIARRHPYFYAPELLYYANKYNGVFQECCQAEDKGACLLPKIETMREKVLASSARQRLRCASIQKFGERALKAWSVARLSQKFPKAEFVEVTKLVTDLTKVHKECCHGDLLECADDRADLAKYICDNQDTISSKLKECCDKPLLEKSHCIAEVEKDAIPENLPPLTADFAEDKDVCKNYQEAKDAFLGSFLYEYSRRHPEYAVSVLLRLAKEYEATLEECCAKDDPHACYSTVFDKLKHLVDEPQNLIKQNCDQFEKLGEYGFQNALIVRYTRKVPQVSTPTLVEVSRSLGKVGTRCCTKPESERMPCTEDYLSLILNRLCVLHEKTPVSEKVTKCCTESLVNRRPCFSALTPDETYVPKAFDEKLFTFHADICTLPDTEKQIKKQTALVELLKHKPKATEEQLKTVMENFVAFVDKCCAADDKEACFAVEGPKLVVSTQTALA
Description: as §1

binding result (human lysozyme) | Kd (human serum albumin) [nM] | binding result (ovalbumin) | binding result (bovine serum albumin) | Binder
binds | – | – | – | HVLHLFL (antibody, V domains shown, Anti-human lysozyme VL from the HVLP324S library; KD not determined) VL: DIQMTQSPSSLSASVGDRVTITCLASQSIFLYLDWYQQKPGKAPKLLCFFASTLESGVPSRFSCSGSGTDFTLTISNLQPEDFATYYCQQSYSTPRTFGHGTKVTVL
– | 800 | no binding | no binding | HVLHSA1 (antibody, V domains shown, Anti-human serum albumin VL single-domain antibody from the HVLP324S library (Cys48/Cys64); also called anti-human serum albumin VL; not shown: C-terminal His6 tag) VL: DIQMTQSPSSLSASVGDRVTITCRASQSISTYLNWYQQKPGKAPKLLCFGASRLNSGVPSRFSCSGSGTDFTLTISNLQPEDFATYYCRQLFPLPDRRTFGHGTKVTVL
